B1: Recombinant full-length human MLKL (residue 2-471), wild type (natural protein, UniProt Q8NB16 2-471, looked up)
chain: ENLKHIITLGQVIHKRCEEMKYCKKQCRRLGHRVLGLIKPLEMLQDQGKRSVPSEKLTTAMNRFKAALEEANGEIEKFSNRSNICRFLTASQDKILFKDVNRKLSDVWKELSLLLQVEQRMPVSPISQGASWAQEDQQDADEDRRAFQMLRRDNEKIEASLRRLEINMKEIKETLRQYLPPKCMQEIPQEQIKEIKKEQLSGSPWILLRENEVSTLYKGEYHRAPVAIKVFKKLQAGSIAIVRQTFNKEIKTMKKFESPNILRIFGICIDETVTPPQFSIVMEYCELGTLRELLDREKDLTLGKRMVLVLGAARGLYRLHHSEAPELHGKIRSSNFLVTQGYQVKLAGFELRKTQTSMSLGTTREKTDRVKSTAYLSPQELEDVFYQYDVKSEIYSFGIVLWEIATGDIPFQGCNSEKIRKLVAVKRQQEPLGEDCPSELREIIDECRAHDPSVRPSVDEILKKLSTFSK
notes: Bacmids were made from pFastBac Htb vectors; also called MLKL^WT; hMLKL; source: Sf21 insect cells, purified (glutathione agarose, size-exclusion chromatography)
B2: Recombinant full-length human MLKL (residue 2-471) S83D (natural protein, UniProt Q8NB16 2-471, looked up)
chain: ENLKHIITLGQVIHKRCEEMKYCKKQCRRLGHRVLGLIKPLEMLQDQGKRSVPSEKLTTAMNRFKAALEEANGEIEKFSNRDNICRFLTASQDKILFKDVNRKLSDVWKELSLLLQVEQRMPVSPISQGASWAQEDQQDADEDRRAFQMLRRDNEKIEASLRRLEINMKEIKETLRQYLPPKCMQEIPQEQIKEIKKEQLSGSPWILLRENEVSTLYKGEYHRAPVAIKVFKKLQAGSIAIVRQTFNKEIKTMKKFESPNILRIFGICIDETVTPPQFSIVMEYCELGTLRELLDREKDLTLGKRMVLVLGAARGLYRLHHSEAPELHGKIRSSNFLVTQGYQVKLAGFELRKTQTSMSLGTTREKTDRVKSTAYLSPQELEDVFYQYDVKSEIYSFGIVLWEIATGDIPFQGCNSEKIRKLVAVKRQQEPLGEDCPSELREIIDECRAHDPSVRPSVDEILKKLSTFSK
notes: human MLKL, residues 2-471, with the phosphomimetic S83D; Bacmids were made from pFastBac Htb vectors; also called MLKL^S83D; source: Sf21 insect cells, purified (glutathione agarose, size-exclusion chromatography)
B3: Recombinant full-length human MLKL (residue 2-471) S132P (natural protein, UniProt Q8NB16 2-471, looked up)
chain: ENLKHIITLGQVIHKRCEEMKYCKKQCRRLGHRVLGLIKPLEMLQDQGKRSVPSEKLTTAMNRFKAALEEANGEIEKFSNRSNICRFLTASQDKILFKDVNRKLSDVWKELSLLLQVEQRMPVSPISQGAPWAQEDQQDADEDRRAFQMLRRDNEKIEASLRRLEINMKEIKETLRQYLPPKCMQEIPQEQIKEIKKEQLSGSPWILLRENEVSTLYKGEYHRAPVAIKVFKKLQAGSIAIVRQTFNKEIKTMKKFESPNILRIFGICIDETVTPPQFSIVMEYCELGTLRELLDREKDLTLGKRMVLVLGAARGLYRLHHSEAPELHGKIRSSNFLVTQGYQVKLAGFELRKTQTSMSLGTTREKTDRVKSTAYLSPQELEDVFYQYDVKSEIYSFGIVLWEIATGDIPFQGCNSEKIRKLVAVKRQQEPLGEDCPSELREIIDECRAHDPSVRPSVDEILKKLSTFSK
notes: human MLKL, residues 2-471, with the natural polymorphism p.Ser132Pro; Bacmids were made from pFastBac Htb vectors; also called MLKL^S132P; p.Ser132Pro; source: Sf21 insect cells, purified (glutathione agarose, size-exclusion chromatography)
B4: Recombinant full-length human MLKL (residue 2-471) S83D,S132P (natural protein, UniProt Q8NB16 2-471, looked up)
chain: ENLKHIITLGQVIHKRCEEMKYCKKQCRRLGHRVLGLIKPLEMLQDQGKRSVPSEKLTTAMNRFKAALEEANGEIEKFSNRDNICRFLTASQDKILFKDVNRKLSDVWKELSLLLQVEQRMPVSPISQGAPWAQEDQQDADEDRRAFQMLRRDNEKIEASLRRLEINMKEIKETLRQYLPPKCMQEIPQEQIKEIKKEQLSGSPWILLRENEVSTLYKGEYHRAPVAIKVFKKLQAGSIAIVRQTFNKEIKTMKKFESPNILRIFGICIDETVTPPQFSIVMEYCELGTLRELLDREKDLTLGKRMVLVLGAARGLYRLHHSEAPELHGKIRSSNFLVTQGYQVKLAGFELRKTQTSMSLGTTREKTDRVKSTAYLSPQELEDVFYQYDVKSEIYSFGIVLWEIATGDIPFQGCNSEKIRKLVAVKRQQEPLGEDCPSELREIIDECRAHDPSVRPSVDEILKKLSTFSK
notes: human MLKL, residues 2-471, compound mutant of the phosphomimetic S83D and the polymorphism S132P; Bacmids were made from pFastBac Htb vectors; also called MLKL^(S83D, S132P); MLKL^S83D,S132P; source: Sf21 insect cells, purified (glutathione agarose, size-exclusion chromatography)

Target: the molecule itself
Experiment: SEC; HiLoad 16/600 Superdex 200 pg column after glutathione agarose; fractions at elution volume 55-63 ml taken as tetramers and pooled

Stoichiometry N, 4:
B1
B2
B3
B4

From paper PMC10539340, “A common human MLKL polymorphism confers resistance to negative regulation by phosphorylation” (Nature Communications, 2023)
